Measurements: publication PMC12363161

Molecular target: SDDV major capsid protein, Flag-tagged (pFlag-N3-SDDV MCP) (scale drop disease virus (SDDV))

B1: TM-B polypeptide containing the binding site with SDDV-MCP in mfTfR1 (peptide)
peptide: ADLFRNQFALATWTIQGCANSLAGDIWSL
B1 showed a mortality of mandarin fish challenged with SDDV pre-incubated with TM-B, against the petB2M control (blocks m2 with m8) of 40%.
